This note sets out measurements from PMC7293033.

Common to all, as to test: SPR
In experiment [1] the target is T1, His-API5 (apoptosis inhibitor 5, residues 1-504, isoform 2), wild type.
T1 chain: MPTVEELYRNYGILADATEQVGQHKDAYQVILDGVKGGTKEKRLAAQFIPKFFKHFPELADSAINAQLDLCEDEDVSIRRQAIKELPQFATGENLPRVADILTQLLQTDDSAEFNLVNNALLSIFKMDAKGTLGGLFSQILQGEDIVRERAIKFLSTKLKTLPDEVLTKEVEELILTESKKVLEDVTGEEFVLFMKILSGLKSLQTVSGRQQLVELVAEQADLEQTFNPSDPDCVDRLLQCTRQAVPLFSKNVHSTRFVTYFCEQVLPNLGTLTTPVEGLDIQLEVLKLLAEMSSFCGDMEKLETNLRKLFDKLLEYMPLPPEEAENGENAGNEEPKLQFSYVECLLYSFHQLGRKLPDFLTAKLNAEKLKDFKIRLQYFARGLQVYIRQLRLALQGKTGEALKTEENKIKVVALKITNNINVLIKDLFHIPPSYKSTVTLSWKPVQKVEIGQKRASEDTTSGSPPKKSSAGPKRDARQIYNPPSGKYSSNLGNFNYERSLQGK
As to conditions: chain shown with the change; concentration series 0.13, 0.25, 0.50, 1.0, 2.0, 4.0, 8.0, 16 µM.

Experiment [2] addresses His-FGF2, LMW FGF2 (residues 135-288, C211S/C229S), P09038. As to conditions: chain shown with the change; concentration series 0.031, 0.063, 0.13, 0.25, 0.50, 1.0, 2.0, 4.0, 8.0, 16 µM.
Experiment [3] deals with T2, His-FGF2 Mut (C211S/C229S/R262A/T263A/K271A), P09038.
T2 chain: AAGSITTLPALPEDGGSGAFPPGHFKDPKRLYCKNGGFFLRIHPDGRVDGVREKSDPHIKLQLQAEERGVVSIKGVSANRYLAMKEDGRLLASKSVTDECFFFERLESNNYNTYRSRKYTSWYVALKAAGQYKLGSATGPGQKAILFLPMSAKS
The settings on record: chain shown with the change; concentration series 0.25, 0.50, 1.0, 2.0, 4.0, 8.0, 16, 32, 64 µM.

B1: His-FGF2, LMW FGF2 (residues 135-288, C211S/C229S), P09038 R262A; T263A; K271A (protein)
chain: AAGSITTLPALPEDGGSGAFPPGHFKDPKRLYCKNGGFFLRIHPDGRVDGVREKSDPHIKLQLQAEERGVVSIKGVSANRYLAMKEDGRLLASKSVTDECFFFERLESNNYNTYRSRKYTSWYVALKAAGQYKLGSATGPGQKAILFLPMSAKS
In turn, B1 showed a koff in experiment [1] of 0.00251 s⁻¹.

B2: His-API5 (apoptosis inhibitor 5, residues 1-504, isoform 2), wild type E184A; D185A; E190A (protein)
chain: MPTVEELYRNYGILADATEQVGQHKDAYQVILDGVKGGTKEKRLAAQFIPKFFKHFPELADSAINAQLDLCEDEDVSIRRQAIKELPQFATGENLPRVADILTQLLQTDDSAEFNLVNNALLSIFKMDAKGTLGGLFSQILQGEDIVRERAIKFLSTKLKTLPDEVLTKEVEELILTESKKVLAAVTGEAFVLFMKILSGLKSLQTVSGRQQLVELVAEQADLEQTFNPSDPDCVDRLLQCTRQAVPLFSKNVHSTRFVTYFCEQVLPNLGTLTTPVEGLDIQLEVLKLLAEMSSFCGDMEKLETNLRKLFDKLLEYMPLPPEEAENGENAGNEEPKLQFSYVECLLYSFHQLGRKLPDFLTAKLNAEKLKDFKIRLQYFARGLQVYIRQLRLALQGKTGEALKTEENKIKVVALKITNNINVLIKDLFHIPPSYKSTVTLSWKPVQKVEIGQKRASEDTTSGSPPKKSSAGPKRDARQIYNPPSGKYSSNLGNFNYERSLQGK
B2 had a koff in experiment [2] of 0.0094 s⁻¹.

B3: m1; m2 API5: E184A; D185A; E190A; FGF2: R262A; T263A; K271A (protein)
chain: MPTVEELYRNYGILADATEQVGQHKDAYQVILDGVKGGTKEKRLAAQFIPKFFKHFPELADSAINAQLDLCEDEDVSIRRQAIKELPQFATGENLPRVADILTQLLQTDDSAEFNLVNNALLSIFKMDAKGTLGGLFSQILQGEDIVRERAIKFLSTKLKTLPDEVLTKEVEELILTESKKVLAAVTGEAFVLFMKILSGLKSLQTVSGRQQLVELVAEQADLEQTFNPSDPDCVDRLLQCTRQAVPLFSKNVHSTRFVTYFCEQVLPNLGTLTTPVEGLDIQLEVLKLLAEMSSFCGDMEKLETNLRKLFDKLLEYMPLPPEEAENGENAGNEEPKLQFSYVECLLYSFHQLGRKLPDFLTAKLNAEKLKDFKIRLQYFARGLQVYIRQLRLALQGKTGEALKTEENKIKVVALKITNNINVLIKDLFHIPPSYKSTVTLSWKPVQKVEIGQKRASEDTTSGSPPKKSSAGPKRDARQIYNPPSGKYSSNLGNFNYERSLQGK
Turning to B3, in experiment [3], the koff amounted to 0.00328 s⁻¹ and the other: t1/2 (half-life of complex) was 3.52 min.

The term koff denotes a measure of how fast the partners let go of each other. Low values mean slow dissociation, high ones fast dissociation.
